Assays:
[1] = tested on: transfected cell cultures; assay: Visual inspection of cell cultures transfected with HPH 1 expression vector
[2] = tested on: HIF-1a activation of the HRE-driven reporter; assay: Hypoxia-responsive (HRE) luciferase reporter co-transfection in 293 cells; format: cell-based, human
Text: To test whether these HPH enzymes represent part of the hypoxic response pathway in vivo we first co-transfected (21) human embryonic kidney 293 cells with a hypoxia-responsive luciferase reporter (22) and increasing amounts of a vector expressing human HIF-1a under the control of the constitutive CMV promoter. Forced overexpression of HIF-1a can overcome the degradation pathway, resulting in accumulation of the HIF transcription factor under normoxic conditions and subsequent induction of the HRE-containing HIF reporter gene (22). […] Mutation of His^135, Asp^137 or His^196 to alanine eliminated the interfering activity of HPH 1 in these transfection assays. […] Finally, the ability of HPH 1 to diminish induction of the HIF-responsive luciferase reporter was lost when cells were incubated in an atmosphere containing 0.5% O2.
21. Transfection experiments were performed as in (22) with DNA amounts indicated in the text. Western blot analysis using an antibody specific for the carboxy-terminal V5 tag was used to confirm expression of each polypeptide following transfection of 1 μg of each expression vector.

human HIF-1a ODD peptide = human HIF-1a ODD peptide (Homo sapiens, UniProt Q16665, M561A/M568A); assay: [35S]-pVHL pull-down prolyl hydroxylase assay with biotinylated HIF-1a ODD peptide; format: biochemical; settings: for prolyl hydroxylase activity (pVHL association with the biotinylated peptide): enzyme in vitro transcribed/translated in rabbit reticulocyte lysate, ascorbate, 2-oxoglutarate, FeSO4 present
[3] = tested on: CMV-driven luciferase reporter; assay: Constitutive CMV-driven luciferase reporter co-transfection; format: cell-based, human

B1: HPH 1: human HIF prolyl hydroxylase 1, SEQ ID NO:1, Genbank XM_012332 (protein)
chain: MPLGHIMRLDLEKIALEYIVPCLHEVGFCYLDNFLGEVVGDCVLERVKQLHCTGALRDGQLAGPRAGVSKRHLRGDQITWIGGNEEGCEAISFLLSLIDRLVLYCGSRLGKYYVKERSKAMVACYPGNGTGYVRHVDNPNGDGRCITCIYYLNKNWDAKLHGGILRIFPEGKSFIADVEPIFDRLLFFWSDRRNPHEVQPSYATRYAMTVWYFDAEERAEAKKKFRNLTRKTESALTED
modifications: human
programmed cell death [1]: no overt evidence of programmed cell death | effect on induction of the HIF-dependent luciferase reporter ([2]; 293 cells, normoxic, 30 ng or 100 ng HIF-1a expression vector, 3 ng CMV-driven vector): able to attenuate | ability to diminish induction of the HIF-responsive luciferase reporter ([2]; atmosphere containing 0.5% O2): lost | prolyl hydroxylase activity (pVHL association with the biotinylated peptide) (human HIF-1a ODD peptide): able to enhance pVHL association | effect on CMV-driven luciferase reporter expression [3]: did not attenuate

B2: HPH 2: human HPH 1 paralog, Genbank AF229245; splice-variant in which residues 76-177 are omitted was used (protein)
chain: ANDSGGPGGPSPSERDRQYCELCGKMENLLRCSRCRSSFYCCKEHQRQDWKKHKLVCQGSEGALGHGVGPHQHSGPAPPAAVPPPRAGAREPRKAAARRDNASGDAAKGKVKAKPPADPAAAASPCRAAAGGQGSAVAAEAEPGKEEPPARSSLFQEKANLYPPSNTPGDALSPGGGLRPNGQTKPLPALKLALEYIVPCMNKHGICVVDDFLGKETGQQIGDEVRALHDTGKFTDGQLVSQKSDSSKDIRGDKITWIEGKEPGCETIGLLMSSMDDLIRHCNGKLGSYKINGRTKAMVACYPGNGTGYVRHVDNPNGDGRCVTCIYYLNKDWDAKVSGGILRIFPEGKAQFADIEPKFDRLLFFWSDRRNPHEVQPAYATRYAITVWYFDADERARAKVKYLTGEKGVRVELNKPSDSVGKDVF
modifications: left off: small tags and cut ends
hydroxylation of the HIF-1a peptide substrate (human HIF-1a ODD peptide; enzyme expressed in bacterial cells and purified by affinity chromatography): able to hydroxylate | prolyl hydroxylase activity (pVHL association with the biotinylated peptide) (human HIF-1a ODD peptide): catalyze the hydroxylation

B3: H135A: HPH 1 with His135 changed to alanine (protein)
chain: MPLGHIMRLDLEKIALEYIVPCLHEVGFCYLDNFLGEVVGDCVLERVKQLHCTGALRDGQLAGPRAGVSKRHLRGDQITWIGGNEEGCEAISFLLSLIDRLVLYCGSRLGKYYVKERSKAMVACYPGNGTGYVRAVDNPNGDGRCITCIYYLNKNWDAKLHGGILRIFPEGKSFIADVEPIFDRLLFFWSDRRNPHEVQPSYATRYAMTVWYFDAEERAEAKKKFRNLTRKTESALTED
modifications: left off: small tags and cut ends
prolyl hydroxylase activity (pVHL association with the biotinylated peptide) (human HIF-1a ODD peptide): eliminated the prolyl hydroxylase activity

B4: D137A: HPH 1 with Asp137 changed to alanine (protein)
chain: MPLGHIMRLDLEKIALEYIVPCLHEVGFCYLDNFLGEVVGDCVLERVKQLHCTGALRDGQLAGPRAGVSKRHLRGDQITWIGGNEEGCEAISFLLSLIDRLVLYCGSRLGKYYVKERSKAMVACYPGNGTGYVRHVANPNGDGRCITCIYYLNKNWDAKLHGGILRIFPEGKSFIADVEPIFDRLLFFWSDRRNPHEVQPSYATRYAMTVWYFDAEERAEAKKKFRNLTRKTESALTED
modifications: left off: small tags and cut ends
prolyl hydroxylase activity (pVHL association with the biotinylated peptide) (human HIF-1a ODD peptide): eliminated the prolyl hydroxylase activity

B5: H196A: HPH 1 with His196 changed to alanine (protein)
chain: MPLGHIMRLDLEKIALEYIVPCLHEVGFCYLDNFLGEVVGDCVLERVKQLHCTGALRDGQLAGPRAGVSKRHLRGDQITWIGGNEEGCEAISFLLSLIDRLVLYCGSRLGKYYVKERSKAMVACYPGNGTGYVRHVDNPNGDGRCITCIYYLNKNWDAKLHGGILRIFPEGKSFIADVEPIFDRLLFFWSDRRNPAEVQPSYATRYAMTVWYFDAEERAEAKKKFRNLTRKTESALTED
modifications: left off: small tags and cut ends
prolyl hydroxylase activity (pVHL association with the biotinylated peptide) (human HIF-1a ODD peptide): eliminated the prolyl hydroxylase activity
